T1: human β-Klotho extracellular domain (aa1–992) fused with a 6 × His tag at the C-terminus (human, UniProt Q86Z14 1-992, biotin (EZ-Link Sulfo-NHS-LC-Biotin) in the bio-layer interferometry)
T1 construct: signal peptide in the construct; human β-Klotho extracellular domain, aa1–992 of the full-length protein aa1-1044 (NM_175737); also called β-Klotho ECD 6 × His; soluble human β-Klotho; source: CHO-EBNA1, transiently transfected, conditioned medium; not shown: His6, C-terminal, kept
T1 sequence (looked up): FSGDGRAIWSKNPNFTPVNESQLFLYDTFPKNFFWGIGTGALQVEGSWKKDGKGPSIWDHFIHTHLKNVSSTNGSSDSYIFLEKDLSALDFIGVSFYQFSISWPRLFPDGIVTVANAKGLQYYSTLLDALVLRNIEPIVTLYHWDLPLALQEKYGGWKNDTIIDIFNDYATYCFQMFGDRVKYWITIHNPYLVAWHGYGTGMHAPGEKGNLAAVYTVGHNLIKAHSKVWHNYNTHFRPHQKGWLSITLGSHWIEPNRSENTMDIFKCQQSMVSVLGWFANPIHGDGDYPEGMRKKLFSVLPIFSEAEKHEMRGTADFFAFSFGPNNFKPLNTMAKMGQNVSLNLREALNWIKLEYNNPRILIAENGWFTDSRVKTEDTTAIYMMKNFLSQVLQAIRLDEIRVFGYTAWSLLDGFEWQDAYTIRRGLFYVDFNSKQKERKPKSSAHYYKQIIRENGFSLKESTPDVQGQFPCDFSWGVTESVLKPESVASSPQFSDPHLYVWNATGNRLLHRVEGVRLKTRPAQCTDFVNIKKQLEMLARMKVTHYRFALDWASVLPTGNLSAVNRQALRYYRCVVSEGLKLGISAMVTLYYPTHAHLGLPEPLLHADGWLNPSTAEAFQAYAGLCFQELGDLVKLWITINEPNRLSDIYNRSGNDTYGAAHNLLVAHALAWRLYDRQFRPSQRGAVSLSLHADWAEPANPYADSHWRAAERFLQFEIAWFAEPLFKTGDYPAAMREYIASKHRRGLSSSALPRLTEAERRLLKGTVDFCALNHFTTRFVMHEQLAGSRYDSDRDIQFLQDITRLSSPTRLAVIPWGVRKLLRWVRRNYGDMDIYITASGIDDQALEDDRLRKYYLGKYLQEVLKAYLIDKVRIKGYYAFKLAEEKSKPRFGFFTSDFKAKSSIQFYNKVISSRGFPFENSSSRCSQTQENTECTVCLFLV


What follows are binders tested against T1, human β-Klotho extracellular domain … (assay: ELISA; solid-phase binding assay: β-Klotho (500 ng/mL) captured from CHO-EBNA1 conditioned media by plate-coated mouse anti-human β-Klotho antibody; biotinylated FGF21 titrated, 1.5 h room temperature; streptavidin-HRP; three-parameter logistic fit). Conditions: one partner purified.

Row | EC50 | Binder
1 | 3.98 nM | mature human FGF21 (ligand, UniProt Q9NSA1 29-209, looked up, biotin (EZ-Link Sulfo-NHS-LC-Biotin) in the solid-phase binding assay; biotinylated as the labelled ligand in AlphaScreen, human FGF21, mature protein; also called native FGF21) HPIPDSSPLLQFGGQVRQRYLYTDDAQQTEAHLEIREDGTVGGAADQSPESLLQLKALKPGVIQILGVKTSRFLCQRPDGALYGSLHFDPEACSFRELLLEDGYNVYQSEAHGLPLHLPGNKSPHRDPAPRGPARFLPLPGLPPALPEPPGILAPQPPDVGSSDPLSMVGPSQGRSPSYAS

What follows are binders tested against T1, human β-Klotho extracellular domain … (assay: BLI; Octet RED; biotinylated β-Klotho ECD 6×His (10 µg/mL) loaded on streptavidin biosensors; FGF21 or Fc-FGF21 associated 5 min, dissociated 5 min in kinetics buffer; 1:1 binding model). Conditions: both partners purified.

Row | fold increase in affinity over native FGF21 | Binder
2 | 4 fold | mature human FGF21 polypeptide fused with the human Fc fragment at the N-terminus (Fc-FGF21), wild type (Fc fusion, UniProt Q9NSA1 29-209, looked up, human FGF21, mature polypeptide (NM_019113); also called WT Fc-FGF21; source: HEK293-EBNA1, transiently transfected, purified (protein A, MabSelect SuRe); not shown: Fc (human), N-terminal, kept) HPIPDSSPLLQFGGQVRQRYLYTDDAQQTEAHLEIREDGTVGGAADQSPESLLQLKALKPGVIQILGVKTSRFLCQRPDGALYGSLHFDPEACSFRELLLEDGYNVYQSEAHGLPLHLPGNKSPHRDPAPRGPARFLPLPGLPPALPEPPGILAPQPPDVGSSDPLSMVGPSQGRSPSYAS

The binders below were run against T1, human β-Klotho extracellular domain … (assay: ELISA; solid-phase binding assay: WT β-Klotho captured from CHO-EBNA1 conditioned media by plate-coated anti-β-Klotho antibody; purified Fc-FGF21 titrated, 1.5 h room temperature; detected with anti-human IgG Fc-HRP). Conditions: one partner purified.

Row | Binder | fold increase in EC50 compared to WT
3 | Fc-FGF21, 193P to alanine (Fc fusion, human, UniProt Q9NSA1 29-209, looked up, human FGF21, mature polypeptide (NM_019113); also called P193A; source: HEK293-EBNA1, transiently transfected, purified (protein A); not shown: Fc (human), N-terminal, kept) HPIPDSSPLLQFGGQVRQRYLYTDDAQQTEAHLEIREDGTVGGAADQSPESLLQLKALKPGVIQILGVKTSRFLCQRPDGALYGSLHFDPEACSFRELLLEDGYNVYQSEAHGLPLHLPGNKSPHRDPAPRGPARFLPLPGLPPALPEPPGILAPQPPDVGSSDALSMVGPSQGRSPSYAS | > 100 fold
4 | Fc-FGF21, 192D to arginine (Fc fusion, human, UniProt Q9NSA1 29-209, looked up, human FGF21, mature polypeptide (NM_019113); also called D192R; source: HEK293-EBNA1, transiently transfected, purified (protein A); not shown: Fc (human), N-terminal, kept) HPIPDSSPLLQFGGQVRQRYLYTDDAQQTEAHLEIREDGTVGGAADQSPESLLQLKALKPGVIQILGVKTSRFLCQRPDGALYGSLHFDPEACSFRELLLEDGYNVYQSEAHGLPLHLPGNKSPHRDPAPRGPARFLPLPGLPPALPEPPGILAPQPPDVGSSRPLSMVGPSQGRSPSYAS | > 100 fold
5 | Fc-FGF21, 192D to alanine (Fc fusion, human, UniProt Q9NSA1 29-209, looked up, human FGF21, mature polypeptide (NM_019113); also called D192A; source: HEK293-EBNA1, transiently transfected, purified (protein A); not shown: Fc (human), N-terminal, kept) HPIPDSSPLLQFGGQVRQRYLYTDDAQQTEAHLEIREDGTVGGAADQSPESLLQLKALKPGVIQILGVKTSRFLCQRPDGALYGSLHFDPEACSFRELLLEDGYNVYQSEAHGLPLHLPGNKSPHRDPAPRGPARFLPLPGLPPALPEPPGILAPQPPDVGSSAPLSMVGPSQGRSPSYAS | > 100 fold
6 | Fc-FGF21, 196M to alanine (Fc fusion, human, UniProt Q9NSA1 29-209, looked up, human FGF21, mature polypeptide (NM_019113); also called M196A; source: HEK293-EBNA1, transiently transfected, purified (protein A); not shown: Fc (human), N-terminal, kept) HPIPDSSPLLQFGGQVRQRYLYTDDAQQTEAHLEIREDGTVGGAADQSPESLLQLKALKPGVIQILGVKTSRFLCQRPDGALYGSLHFDPEACSFRELLLEDGYNVYQSEAHGLPLHLPGNKSPHRDPAPRGPARFLPLPGLPPALPEPPGILAPQPPDVGSSDPLSAVGPSQGRSPSYAS | > 100 fold
7 | Fc-FGF21, 196M to arginine (Fc fusion, human, UniProt Q9NSA1 29-209, looked up, human FGF21, mature polypeptide (NM_019113); also called M196R; source: HEK293-EBNA1, transiently transfected, purified (protein A); not shown: Fc (human), N-terminal, kept) HPIPDSSPLLQFGGQVRQRYLYTDDAQQTEAHLEIREDGTVGGAADQSPESLLQLKALKPGVIQILGVKTSRFLCQRPDGALYGSLHFDPEACSFRELLLEDGYNVYQSEAHGLPLHLPGNKSPHRDPAPRGPARFLPLPGLPPALPEPPGILAPQPPDVGSSDPLSRVGPSQGRSPSYAS | > 100 fold

The next lines start with the values.

Row | fold increase in EC50 compared to WT | Binder
8 | > 100 fold | Fc-FGF21, 194L to arginine (Fc fusion, human, UniProt Q9NSA1 29-209, looked up, human FGF21, mature polypeptide (NM_019113); also called L194R; source: HEK293-EBNA1, transiently transfected, purified (protein A); not shown: Fc (human), N-terminal, kept) HPIPDSSPLLQFGGQVRQRYLYTDDAQQTEAHLEIREDGTVGGAADQSPESLLQLKALKPGVIQILGVKTSRFLCQRPDGALYGSLHFDPEACSFRELLLEDGYNVYQSEAHGLPLHLPGNKSPHRDPAPRGPARFLPLPGLPPALPEPPGILAPQPPDVGSSDPRSMVGPSQGRSPSYAS
9 | > 100 fold | Fc-FGF21, 193P to arginine (Fc fusion, human, UniProt Q9NSA1 29-209, looked up, human FGF21, mature polypeptide (NM_019113); also called P193R; source: HEK293-EBNA1, transiently transfected, purified (protein A); not shown: Fc (human), N-terminal, kept) HPIPDSSPLLQFGGQVRQRYLYTDDAQQTEAHLEIREDGTVGGAADQSPESLLQLKALKPGVIQILGVKTSRFLCQRPDGALYGSLHFDPEACSFRELLLEDGYNVYQSEAHGLPLHLPGNKSPHRDPAPRGPARFLPLPGLPPALPEPPGILAPQPPDVGSSDRLSMVGPSQGRSPSYAS
10 | > 100 fold | Fc-FGF21, 194L to alanine (Fc fusion, human, UniProt Q9NSA1 29-209, looked up, human FGF21, mature polypeptide (NM_019113); also called L194A; source: HEK293-EBNA1, transiently transfected, purified (protein A); not shown: Fc (human), N-terminal, kept) HPIPDSSPLLQFGGQVRQRYLYTDDAQQTEAHLEIREDGTVGGAADQSPESLLQLKALKPGVIQILGVKTSRFLCQRPDGALYGSLHFDPEACSFRELLLEDGYNVYQSEAHGLPLHLPGNKSPHRDPAPRGPARFLPLPGLPPALPEPPGILAPQPPDVGSSDPASMVGPSQGRSPSYAS

— article PMC6056499, “A systematic dissection of sequence elements determining β-Klotho and FGF interaction and signaling” (Scientific Reports, 2018)
